Results published in patent publication US20260193366A1 (APOGEE THERAPEUTICS, published 2026).
Numbering of substitutions follows the chain as printed.

T1: hIL-4Rα on cells (human, UniProt P24394 26-825)
T1 sequence: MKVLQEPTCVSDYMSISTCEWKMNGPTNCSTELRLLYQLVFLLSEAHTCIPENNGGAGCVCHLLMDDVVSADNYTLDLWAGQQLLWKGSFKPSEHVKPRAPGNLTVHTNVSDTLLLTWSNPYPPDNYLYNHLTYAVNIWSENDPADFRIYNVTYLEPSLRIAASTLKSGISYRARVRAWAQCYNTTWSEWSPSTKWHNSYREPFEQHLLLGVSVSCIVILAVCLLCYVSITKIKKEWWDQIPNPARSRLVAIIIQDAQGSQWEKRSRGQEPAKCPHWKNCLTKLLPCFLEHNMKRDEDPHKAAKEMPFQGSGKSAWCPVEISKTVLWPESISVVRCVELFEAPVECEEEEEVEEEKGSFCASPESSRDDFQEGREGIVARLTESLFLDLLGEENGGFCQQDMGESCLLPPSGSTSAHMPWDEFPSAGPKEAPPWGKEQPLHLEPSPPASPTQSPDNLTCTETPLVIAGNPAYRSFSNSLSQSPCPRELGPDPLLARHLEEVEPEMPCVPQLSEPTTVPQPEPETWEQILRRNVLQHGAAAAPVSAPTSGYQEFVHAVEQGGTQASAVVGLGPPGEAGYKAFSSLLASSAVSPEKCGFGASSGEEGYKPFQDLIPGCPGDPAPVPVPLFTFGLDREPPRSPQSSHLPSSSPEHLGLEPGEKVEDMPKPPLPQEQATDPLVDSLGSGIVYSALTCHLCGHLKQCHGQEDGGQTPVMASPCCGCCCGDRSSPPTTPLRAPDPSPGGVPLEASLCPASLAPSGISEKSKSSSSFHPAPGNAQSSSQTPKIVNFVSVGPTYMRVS

T2: cynomolgus monkey IL-4Rα (cynomolgus monkey, UniProt P24394 26-231 (human entry), limits assumed)
T2 construct: also called Cyno IL-4Rα; cyIL-4Rα
T2 chain: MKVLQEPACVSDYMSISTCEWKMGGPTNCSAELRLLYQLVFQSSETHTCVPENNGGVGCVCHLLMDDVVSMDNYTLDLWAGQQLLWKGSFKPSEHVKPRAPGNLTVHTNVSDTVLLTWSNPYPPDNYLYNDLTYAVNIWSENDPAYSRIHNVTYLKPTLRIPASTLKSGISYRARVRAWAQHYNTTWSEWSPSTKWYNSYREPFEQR

T3: human IL-4Rα (human, UniProt P24394 26-232)
T3 construct: also called Hu IL-4Rα; hIL-4Rα
T3 sequence: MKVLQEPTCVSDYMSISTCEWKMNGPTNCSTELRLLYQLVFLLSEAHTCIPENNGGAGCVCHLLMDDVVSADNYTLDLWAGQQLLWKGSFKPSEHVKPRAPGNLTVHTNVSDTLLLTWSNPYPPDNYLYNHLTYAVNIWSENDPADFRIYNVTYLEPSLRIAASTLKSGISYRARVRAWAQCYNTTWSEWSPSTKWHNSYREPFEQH

B1: Construct 23 (mAb431) (antibody, V domains shown)
VH: EVQLVESGGGLEQPGGSLRLSCAGSGFTFRDFAMTWVRQAPGKGLEWVSSISGGGGSTYYADSVKGRFTISRDNSKNTLYLQMNSLRAEDTAVYYCAKDRLSVTVRPRYYGLDVWGQGTTVTVSS
VL: DIVMTQSPLSLPVTPGEPASISCRSSQSVLYSIGKNYVDWYLQKSGQSPQLLIYLGSQRATGVPDRFSGSGSGTDFTLKISRVEAEDVGFYYCMQSLTSPYTFGQGTKLEIK
notes: VH/VL only
B2: Construct 26 (mAb434) (antibody, IgG4, V domains shown)
VH: B1 VH with V103I, T104A
VL: B1 VL with R24T, S25A, V29L, K35Y, S57N, Q58K, T61S
notes: VH/VL only
B3: Construct 28 (mAb436) (antibody, IgG4, V domains shown)
VH: B1 VH with I51V, G54S, S57N
VL: B1 VL with R24T, V29L, K35Y, S57N, Q58K, T61S, T98Q, S99T
notes: VH/VL only
B4: Construct 33 (mAb450) (antibody, IgG4, V domains shown)
VH: B1 VH with G54S, S57N, T58I, L101V, V103I, V105I
VL: B1 VL with R24T, S25A, V29L, K35Y, Q58K, T61S, S96A, T98G
notes: VH/VL only
B5: Construct 36 (mAb469) (antibody, IgG4, V domains shown)
VH: B1 VH with G54S, S57N, T58I, V103K, V105I
VL: B1 VL with V29L, L55E, S57N, Q58N, T61S
notes: VH/VL only
B6: Construct 35 (mAb467) (antibody, IgG4, V domains shown)
VH: B1 VH with D31T, F32Y, G54S, S57N, L101V, V103I, V105I
VL: B1 VL with R24T, V29L, L55E, S57N, Q58N
notes: VH/VL only
B7: Construct 34 (mAb459) (antibody, IgG4, V domains shown)
VH: B1 VH with G54S, G56D, S57N, T58I, V103K, V105I
VL: B1 VL with S28G, V29L, K35Y, S57N, Q58K, T61S, S96A, T98D, S99T
notes: VH/VL only
B8: Construct 27 (mAb435) (antibody, IgG4, V domains shown)
VH: B1 VH with R30T, G54S, S57N, T58K
VL: B1 VL with R24T, S25A, V29L, K35Y, S57N, Q58K, T61S
notes: VH/VL only
B9: Construct 39 (mAb473) (antibody, IgG4, V domains shown)
VH: B1 VH with F32S, G54S, G56D, S57N, V103I
VL: B1 VL with V29L, S57N, Q58K, T61S, S96A, T98G
notes: VH/VL only
B10: Construct 37 (mAb470) (antibody, IgG4, V domains shown)
VH: B1 VH with D31T, F32Y, S57N
VL: B1 VL with S25A, V29L, I33V, K35Y, S57N, Q58N, T61S
notes: VH/VL only
B11: Construct 25 (mAb433) (antibody, IgG4, V domains shown)
VH: B1 VH with G54S, G56D, S57N, T58I, V103K, V105I
VL: B1 VL with R24T, S25A, V29L, K35Y, V38L, L55E, S57N, Q58K, T61S
notes: VH/VL only

target: T1, hIL-4Rα on cells; assay: FACS on HEK293 cells, competitor biotin-hIL-4;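 further: HEK293 cells stably co-expressing hIL-13Rα and hIL-4Rα, stained for 1 h at 4 °C, read-out as mean fluorescence intensity by flow cytometry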

Relative Blockade of IL-4 Binding IC50 | Binder
1.07 relative to dupilumab | B1
0.763 relative to dupilumab | B2
0.849 relative to dupilumab | B3
1.01 relative to dupilumab | B4
1.18 relative to dupilumab | B5
1.29 relative to dupilumab | B6
1.23 relative to dupilumab | B7
0.99 relative to dupilumab | B8
1.09 relative to dupilumab | B9
1.08 relative to dupilumab | B10
1.36 relative to dupilumab | B11

target: T1, hIL-4Rα on cells; assay: cell-based or functional assay

Relative Inhibition of IL-4 induced TF-1 Proliferation IC50 | Relative Inhibition of IL-13 induced TF-1 Proliferation IC50 | Binder
0.823 relative to dupilumab | 0.732 relative to dupilumab | B1
0.7 relative to dupilumab | 0.83 relative to dupilumab | B2
1.19 relative to dupilumab | 0.634 relative to dupilumab | B3
1.05 relative to dupilumab | 0.926 relative to dupilumab | B4
1.05 relative to dupilumab | 1.25 relative to dupilumab | B5
0.948 relative to dupilumab | 1.11 relative to dupilumab | B6
1.46 relative to dupilumab | 1.55 relative to dupilumab | B7
0.962 relative to dupilumab | 0.773 relative to dupilumab | B8
1.18 relative to dupilumab | 1.21 relative to dupilumab | B9
0.943 relative to dupilumab | 0.919 relative to dupilumab | B10
2.04 relative to dupilumab | 1.31 relative to dupilumab | B11

target: T1, hIL-4Rα on cells; assay: cell-based or functional assay; remark: another data set of the same source

Relative Inhibition of IL-4 induced TARC IC50 | Relative Inhibition of IL-13 induced TARC IC50 | Binder
0.557 relative to dupilumab | 0.579 relative to dupilumab | B1
0.763 relative to dupilumab | 1.73 relative to dupilumab | B2
0.58 relative to dupilumab | 1.81 relative to dupilumab | B3
3.2 relative to dupilumab | 1.07 relative to dupilumab | B4
1.78 relative to dupilumab | 0.999 relative to dupilumab | B5
1.92 relative to dupilumab | 1.65 relative to dupilumab | B6
4.32 relative to dupilumab | 1.35 relative to dupilumab | B7
0.547 relative to dupilumab | 1.83 relative to dupilumab | B8
1.65 relative to dupilumab | 5.23 relative to dupilumab | B9
1.16 relative to dupilumab | 0.868 relative to dupilumab | B10
1.17 relative to dupilumab | 1.78 relative to dupilumab | B11

target: T1, hIL-4Rα on cells; assay: FACS on HEK293 cells, competitor biotin-hIL-13;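 further: stably transduced cells co-expressing both receptor chains, stained cold, with cell-bound signal read as mean fluorescence intensity by flow cytometry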

Relative Blockade of IL-13 Binding IC50 | Binder
0.793 relative to dupilumab | B1
0.486 relative to dupilumab | B2
0.611 relative to dupilumab | B3
1.21 relative to dupilumab | B4
1.22 relative to dupilumab | B5
1.25 relative to dupilumab | B6
1.21 relative to dupilumab | B7
0.592 relative to dupilumab | B8
1.05 relative to dupilumab | B9
1.05 relative to dupilumab | B10
1.09 relative to dupilumab | B11

target: T1, hIL-4Rα on cells; assay: cell-based or functional assay; remark: another data set of the same source

Relative Inhibition of IL-4 induced pSTAT6 IC50 | Relative Inhibition of IL-13 induced pSTAT6 IC50 | Binder
0.483 relative to dupilumab | 0.475 relative to dupilumab | B1
0.661 relative to dupilumab | 0.627 relative to dupilumab | B2
0.999 relative to dupilumab | 0.497 relative to dupilumab | B3
0.888 relative to dupilumab | 1.59 relative to dupilumab | B4
0.957 relative to dupilumab | 2.16 relative to dupilumab | B5
0.766 relative to dupilumab | 2.71 relative to dupilumab | B6
0.464 relative to dupilumab | 2.42 relative to dupilumab | B7
0.676 relative to dupilumab | 0.38 relative to dupilumab | B8
0.81 relative to dupilumab | 2.17 relative to dupilumab | B9
0.713 relative to dupilumab | 1.22 relative to dupilumab | B10
1.33 relative to dupilumab | 1.82 relative to dupilumab | B11

Target: T2, cynomolgus monkey IL-4Rα
Assay: SPR, Carterra LSA;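 further: antibodies captured on an anti-human Fc sensor chip, antigen injected at several concentrations, association and dissociation rates fitted with a 1:1 Langmuir model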

KD Relative to Dupilumab | Kd | Binder
0.1 | 63.3 nM | B1
0.26 | 166 nM | B2
0.09 | 54.7 nM | B3
0.05 | 33.9 nM | B4
0.61 | 385 nM | B5
0.29 | 180 nM | B6
0.53 | 334 nM | B7
0.28 | 176 nM | B8
0.27 | 168 nM | B9
0.23 | 143 nM | B10
1.12 | 703 nM | B11

target: T3, human IL-4Rα; assay: SPR, Carterra LSA;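 further: antibodies captured on an anti-human Fc sensor chip, antigen injected at several concentrations, association and dissociation rates fitted with a 1:1 Langmuir model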

KD Relative to Dupilumab | Kd | Binder
0.67 | 0.00762 nM | B1
0.78 | 0.00883 nM | B2
0.69 | 0.00777 nM | B3
0.78 | 0.00875 nM | B4
0.99 | 0.0112 nM | B5
0.99 | 0.0112 nM | B6
1.01 | 0.0114 nM | B7
1.12 | 0.0126 nM | B8
0.92 | 0.0104 nM | B9
1.03 | 0.0116 nM | B10
0.94 | 0.0107 nM | B11
